Experiments:
Test in all cases: cell-based or functional assay
hNav1.8 (human) = hNav1.8 (human) (UniProt Q9Y5Y9)
hNav1.4 (human) = hNav1.4 (human) (UniProt P35499)
hNav1.1 (human) = hNav1.1 (human) (UniProt P35498)
hNav1.3 (human) = hNav1.3 (human) (UniProt Q9NY46)
hNav1.6 (human) = hNav1.6 (human) (UniProt Q9UQD0)
hNav1.2 (human) = hNav1.2 (human) (UniProt Q99250)
hNav1.5 (human) = hNav1.5 (human) (UniProt Q14524)

hNav1.3 (human), sequence (Q9NY46 whole entry): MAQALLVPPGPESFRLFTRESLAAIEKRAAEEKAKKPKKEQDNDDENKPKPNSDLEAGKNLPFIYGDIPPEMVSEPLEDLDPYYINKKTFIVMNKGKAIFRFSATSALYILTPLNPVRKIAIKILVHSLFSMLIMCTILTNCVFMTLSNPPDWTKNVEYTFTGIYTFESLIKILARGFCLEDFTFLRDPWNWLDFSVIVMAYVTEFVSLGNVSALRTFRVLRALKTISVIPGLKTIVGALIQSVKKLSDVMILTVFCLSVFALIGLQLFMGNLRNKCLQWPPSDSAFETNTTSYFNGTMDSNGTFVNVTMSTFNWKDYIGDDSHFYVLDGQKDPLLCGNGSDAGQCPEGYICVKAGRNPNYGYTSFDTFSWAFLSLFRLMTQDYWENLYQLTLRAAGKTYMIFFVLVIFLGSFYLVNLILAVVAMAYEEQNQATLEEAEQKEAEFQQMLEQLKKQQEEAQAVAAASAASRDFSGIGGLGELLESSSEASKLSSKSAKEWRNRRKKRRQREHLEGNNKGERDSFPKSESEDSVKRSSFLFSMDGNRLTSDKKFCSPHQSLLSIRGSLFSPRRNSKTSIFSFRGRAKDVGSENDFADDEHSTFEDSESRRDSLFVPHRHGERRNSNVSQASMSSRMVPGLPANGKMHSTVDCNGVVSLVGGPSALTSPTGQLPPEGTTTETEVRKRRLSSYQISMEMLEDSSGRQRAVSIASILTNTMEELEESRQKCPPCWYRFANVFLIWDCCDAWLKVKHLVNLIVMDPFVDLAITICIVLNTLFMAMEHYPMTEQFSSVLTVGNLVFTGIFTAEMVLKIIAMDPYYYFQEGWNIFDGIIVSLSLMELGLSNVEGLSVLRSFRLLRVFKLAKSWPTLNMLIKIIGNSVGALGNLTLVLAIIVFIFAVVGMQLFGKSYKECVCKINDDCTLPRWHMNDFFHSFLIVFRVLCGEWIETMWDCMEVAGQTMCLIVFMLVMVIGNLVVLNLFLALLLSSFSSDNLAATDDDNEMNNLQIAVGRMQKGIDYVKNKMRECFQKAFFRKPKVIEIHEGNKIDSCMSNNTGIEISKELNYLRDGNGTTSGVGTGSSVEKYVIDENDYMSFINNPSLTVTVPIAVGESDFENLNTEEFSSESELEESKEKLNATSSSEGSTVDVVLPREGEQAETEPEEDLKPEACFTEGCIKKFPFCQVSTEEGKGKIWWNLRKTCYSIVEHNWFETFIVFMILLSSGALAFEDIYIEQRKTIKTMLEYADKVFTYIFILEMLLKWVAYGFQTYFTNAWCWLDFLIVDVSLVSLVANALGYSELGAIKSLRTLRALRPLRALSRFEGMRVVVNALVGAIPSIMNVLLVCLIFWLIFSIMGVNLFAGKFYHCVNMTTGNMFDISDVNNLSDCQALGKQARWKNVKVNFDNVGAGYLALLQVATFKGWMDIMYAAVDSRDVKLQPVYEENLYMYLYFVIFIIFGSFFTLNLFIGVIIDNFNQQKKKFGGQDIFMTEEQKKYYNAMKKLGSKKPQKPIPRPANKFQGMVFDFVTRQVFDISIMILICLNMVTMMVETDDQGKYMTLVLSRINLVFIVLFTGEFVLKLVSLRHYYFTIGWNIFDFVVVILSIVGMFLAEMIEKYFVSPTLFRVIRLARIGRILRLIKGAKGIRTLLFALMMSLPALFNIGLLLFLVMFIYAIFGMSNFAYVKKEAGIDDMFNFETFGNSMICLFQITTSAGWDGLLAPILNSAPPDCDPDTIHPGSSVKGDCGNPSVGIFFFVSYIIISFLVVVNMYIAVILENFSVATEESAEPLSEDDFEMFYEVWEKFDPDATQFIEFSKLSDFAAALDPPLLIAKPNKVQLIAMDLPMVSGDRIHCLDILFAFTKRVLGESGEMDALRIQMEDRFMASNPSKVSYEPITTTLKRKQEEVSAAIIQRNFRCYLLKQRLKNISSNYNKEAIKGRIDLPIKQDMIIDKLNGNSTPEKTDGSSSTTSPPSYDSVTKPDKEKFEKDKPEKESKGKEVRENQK
hNav1.2 (human), sequence (Q99250 whole entry): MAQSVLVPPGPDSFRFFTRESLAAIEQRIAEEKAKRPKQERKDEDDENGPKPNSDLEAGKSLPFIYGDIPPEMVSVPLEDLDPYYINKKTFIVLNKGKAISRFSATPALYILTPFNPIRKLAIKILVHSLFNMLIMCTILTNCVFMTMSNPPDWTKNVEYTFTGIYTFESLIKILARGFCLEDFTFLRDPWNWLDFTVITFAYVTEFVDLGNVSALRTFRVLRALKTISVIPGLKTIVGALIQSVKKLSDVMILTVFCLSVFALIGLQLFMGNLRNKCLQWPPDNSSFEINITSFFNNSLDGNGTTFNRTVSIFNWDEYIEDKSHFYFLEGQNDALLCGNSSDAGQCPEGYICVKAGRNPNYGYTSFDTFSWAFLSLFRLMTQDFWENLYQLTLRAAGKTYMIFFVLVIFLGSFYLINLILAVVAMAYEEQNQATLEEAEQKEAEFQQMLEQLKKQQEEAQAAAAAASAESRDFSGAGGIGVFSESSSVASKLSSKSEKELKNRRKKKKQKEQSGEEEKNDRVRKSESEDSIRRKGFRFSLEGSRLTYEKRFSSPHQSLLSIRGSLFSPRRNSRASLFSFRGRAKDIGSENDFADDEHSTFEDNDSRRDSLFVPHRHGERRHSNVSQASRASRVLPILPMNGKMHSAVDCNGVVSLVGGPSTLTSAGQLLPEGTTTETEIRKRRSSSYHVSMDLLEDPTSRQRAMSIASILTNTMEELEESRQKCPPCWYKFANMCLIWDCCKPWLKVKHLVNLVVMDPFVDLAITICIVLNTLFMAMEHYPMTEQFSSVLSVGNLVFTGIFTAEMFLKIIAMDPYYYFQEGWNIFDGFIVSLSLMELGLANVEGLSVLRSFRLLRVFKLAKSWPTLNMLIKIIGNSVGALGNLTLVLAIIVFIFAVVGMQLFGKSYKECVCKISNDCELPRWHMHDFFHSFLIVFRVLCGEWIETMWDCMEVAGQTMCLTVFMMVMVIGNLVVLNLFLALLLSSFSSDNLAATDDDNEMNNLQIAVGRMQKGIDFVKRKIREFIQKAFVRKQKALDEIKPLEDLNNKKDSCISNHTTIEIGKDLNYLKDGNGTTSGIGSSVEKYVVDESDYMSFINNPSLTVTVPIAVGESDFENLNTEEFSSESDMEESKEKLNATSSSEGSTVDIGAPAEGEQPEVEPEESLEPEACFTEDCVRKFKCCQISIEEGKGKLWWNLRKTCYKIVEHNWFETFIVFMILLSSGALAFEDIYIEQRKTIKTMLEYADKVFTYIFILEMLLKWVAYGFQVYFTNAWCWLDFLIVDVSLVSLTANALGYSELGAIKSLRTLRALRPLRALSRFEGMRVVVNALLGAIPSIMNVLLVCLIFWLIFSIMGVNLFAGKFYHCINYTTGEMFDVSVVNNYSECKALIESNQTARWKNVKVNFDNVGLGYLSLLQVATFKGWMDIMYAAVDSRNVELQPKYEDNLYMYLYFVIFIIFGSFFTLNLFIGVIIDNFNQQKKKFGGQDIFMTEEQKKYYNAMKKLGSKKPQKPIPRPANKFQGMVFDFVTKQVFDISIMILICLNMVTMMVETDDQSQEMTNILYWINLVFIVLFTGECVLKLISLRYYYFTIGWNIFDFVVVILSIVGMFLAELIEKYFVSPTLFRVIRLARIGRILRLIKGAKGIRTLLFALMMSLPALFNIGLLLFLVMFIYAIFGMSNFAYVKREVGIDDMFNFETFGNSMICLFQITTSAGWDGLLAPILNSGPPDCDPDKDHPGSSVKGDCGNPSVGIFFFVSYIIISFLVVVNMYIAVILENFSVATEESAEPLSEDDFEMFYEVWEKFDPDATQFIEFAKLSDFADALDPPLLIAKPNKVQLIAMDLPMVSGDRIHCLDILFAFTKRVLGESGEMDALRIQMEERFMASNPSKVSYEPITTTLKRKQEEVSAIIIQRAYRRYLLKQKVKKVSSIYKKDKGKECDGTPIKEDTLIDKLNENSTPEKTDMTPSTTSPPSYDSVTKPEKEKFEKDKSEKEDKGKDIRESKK

For Pnc1a-CONH2 (peptide), the IC50, membrane potential assay (hNav1.8 (human)) was > 30 µM, the IC50, membrane potential assay (hNav1.4 (human)) was 16 µM and the IC50, membrane potential assay (hNav1.1 (human)) was 8 µM. It also gave an IC50, membrane potential assay (hNav1.3 (human)) of 7 µM, an IC50, membrane potential assay (hNav1.6 (human)) of 20 µM and an IC50, membrane potential assay (hNav1.2 (human)) of 3 µM. The IC50, membrane potential assay (hNav1.5 (human)) was > 30 µM.
For Ac-Pnc1a (peptide), the IC50, membrane potential assay (hNav1.8 (human)) was > 30 µM, the IC50, membrane potential assay (hNav1.4 (human)) was 14 µM and the IC50, membrane potential assay (hNav1.1 (human)) was 23 µM. It also gave an IC50, membrane potential assay (hNav1.3 (human)) of 8 µM, an IC50, membrane potential assay (hNav1.6 (human)) of 16 µM and an IC50, membrane potential assay (hNav1.2 (human)) of 5 µM. The IC50, membrane potential assay (hNav1.5 (human)) was > 30 µM.

— patent US20190359662A1
